Test results reported in patent publication US9879306B2, “Luciferase biosensors for cAMP” (PROMEGA CORPORATION, priority 2008, dated 2018).

T1: GPR41 (Homo sapiens, UniProt O14843)
T1 sequence (O14843 1-346): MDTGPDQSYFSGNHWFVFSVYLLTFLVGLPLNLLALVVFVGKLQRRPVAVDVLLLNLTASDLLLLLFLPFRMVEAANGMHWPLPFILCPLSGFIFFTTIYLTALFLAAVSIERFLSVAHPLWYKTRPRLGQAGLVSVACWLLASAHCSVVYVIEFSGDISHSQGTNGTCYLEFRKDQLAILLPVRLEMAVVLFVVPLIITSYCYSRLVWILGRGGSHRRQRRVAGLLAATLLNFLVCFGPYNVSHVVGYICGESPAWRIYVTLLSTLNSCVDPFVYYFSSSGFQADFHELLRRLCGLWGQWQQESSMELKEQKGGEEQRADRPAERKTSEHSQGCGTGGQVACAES


How the values were obtained:
[1] = biological target: T1, GPR41; assay: Sodium proprionate CRC with biosensor variants in HEK293 cells stably expressing GPR41; type: cell-based; details: for Fold Response Na proprionate + FSK(1 μM): with FSK 1 μM; for Fold Response Na proprionate: without FSK, ratio of induced to uninduced signal
Method: (§1) After 24 hours, the cells were transiently transfected with one of the cAMP biosensor variants (Tables 7A and 7B). After another 24 hours, the cells were equilibrated for 2 hours at room temperature using 5 mM EF-luc in CO2 independent media with 10% FBS. Prior to the addition of the compounds, luminescence was measured. The compounds (12× stock in CO2 independent media without FBS) were then added to the cells. For GPR41 expressing cells, sodium proprionate CRC was added. […] The cells were allowed to incubate another 30 minutes and luminescence read on a Varioskan Flash. EC50 values and fold responses were calculated for each of the clones with each of the compounds with or without FSK. In addition, variants […]7 (Example VIIB), 16A2 (Example VIIB) and GS358 were also screened.

[2] = tested on: GPR41; assay: as above; type: cell-based; details: ratio of RLU of FSK treated well to untreated well
Method: as §1

| Molecule | Fold Response Na proprionate + FSK(1 μM) [1] [fold] | Fold Response Na proprionate [1] [fold] | Fold Signal Change [2] [fold] |
| --- | --- | --- | --- |
| L9-ILY: L9 background with Luc2.0 F369I, F518L and RIIβB F407Y; SEQ ID NO:82, 83 (protein) MPGAVGKVVPFIEAKVVDLDTGKTLGVNQRGELCVRGPMIMSGYVNNPEATNALIDKDGWLHSGDIAYWDEDEHFFIVDRLKSLIKYKGYQVAPAELESILLQHPNIFDAGVAGLPDDDAGELPAAVVVLEHGKTMTEKEIVDYVASQVTTAKKLRGGVVLVDEVPKGLTGKLDARKIREILIKAKKGSIAGCGDAGEGMYESFIESLPILKSLEFSARLKVVDVIGTKVYNDGEQIIAQGDSADSFYIIESGEVKITMKRKGKSEVEENGAVEIARCSRGQYFGELALVTNKPRAASAHAIGTVKCLAMDVQAFERLLGPCMEIMKRNIATYEEQLVALYGTNMDIVAKNIKKGPAPLYPLEDGTAGEQLHKAMKRYALVPGTIAFTDAHIEVDITYAEYFEMSVRLAEAMKRYGLNTNHRIVVCSENSLQFFMPVLGALFIGVAVAPANDIYNERELLNSMGISQPTVVFVSKKGLQKILNVQKKLPIIQKIIIMDSKTDYQGFQSMYTFVTSHLPPGFNEYDFVPESFDRDKTIALIMNSSGSTGLPKGVALPHRTACVRFSHARDPIFGNQIIPDTAILSVVPFHHGFGMFTTLGYLICGFRVVLMYRFEEELFLRSLQDYKIQSALLVPTLFSFFAKSTLIDKYDLSNLHEIASGGAPLSKEVGEAVAKRFHLPGIRQGYGLTETTSAILITPEGV | 4.91 | 3.34 | 161.2 |
| L9-ILQY: L9 background with Luc2.0 F369I, F518L, K541Q and RIIβB F407Y; SEQ ID NO:80, 81 (protein) MPGAVGKVVPFIEAKVVDLDTGKTLGVNQRGELCVRGPMIMSGYVNNPEATNALIDKDGWLHSGDIAYWDEDEHFFIVDRLKSLIKYKGYQVAPAELESILLQHPNIFDAGVAGLPDDDAGELPAAVVVLEHGKTMTEKEIVDYVASQVTTAKKLRGGVVLVDEVPKGLTGKLDARKIREILIQAKKGSIAGCGDAGEGMYESFIESLPFLKSLEFSARLKVVDVIGTKVYNDGEQIIAQGDSADSFFIIESGEVKITMKRKGKSEVEENGAVEIARCSRGQYFGELALVTNKPRAASAHAIGTVKCLAMDVQAFERLLGPCMEIMKRNIATYEEQLVALYGTNMDIVAKNIKKGPAPFYPLEDGTAGEQLHKAMKRYALVPGTIAFTDAHIEVDITYAEYFEMSVRLAEAMKRYGLNTNHRIVVCSENSLQFFMPVLGALFIGVAVAPANDIYNERELLNSMGISQPTVVFVSKKGLQKILNVQKKLPIIQKIIIMDSKTDYQGFQSMYTFVTSHLPPGFNEYDFVPESFDRDKTIALIMNSSGSTGLPKGVALPHRTACVRFSHARDPIFGNQIIPDTAILSVVPFHHGFGMFTTLGYLICGFRVVLMYRFEEELFLRSLQDYKIQSALLVPTLFSFFAKSTLIDKYDLSNLHEIASGGAPLSKEVGEAVAKRFHLPGIRQGYGLTETTSAILITPEGV |  |  | 152.7 |
| L9-L: L9 background with Luc2.0 F518L; SEQ ID NO:94, 95 (protein) MPGAVGKVVPFFEAKVVDLDTGKTLGVNQRGELCVRGPMIMSGYVNNPEATNALIDKDGWLHSGDIAYWDEDEHFFIVDRLKSLIKYKGYQVAPAELESILLQHPNIFDAGVAGLPDDDAGELPAAVVVLEHGKTMTEKEIVDYVASQVTTAKKLRGGVVLVDEVPKGLTGKLDARKIREILIKAKKGSIAGCGDAGEGMYESFIESLPFLKSLEFSARLKVVDVIGTKVYNDGEQIIAQGDSADSFFIIESGEVKITMKRKGKSEVEENGAVEIARCSRGQYFGELALVTNKPRAASAHAIGTVKCLAMDVQAFERLLGPCMEIMKRNIATYEEQLVALFGTNMDIVAKNIKKGPAPFYPLEDGTAGEQLHKAMKRYALVPGTIAFTDAHIEVDITYAEYFEMSVRLAEAMKRYGLNTNHRIVVCSENSLQFFMPVLGALFIGVAVAPANDIYNERELLNSMGISQPTVVFVSKKGLQKILNVQKKLPIIQKIIIMDSKTDYQGFQSMYTFVTSHLPPGFNEYDFVPESFDRDKTIALIMNSSGSTGLPKGVALPHRTACVRFSHARDPIFGNQIIPDTAILSVVPFHHGFGMFTTLGYLICGFRVVLMYRFEEELFLRSLQDYKIQSALLVPTLFSFFAKSTLIDKYDLSNLHEIASGGAPLSKEVGEAVAKRFHLPGIRQGYGLTETTSAILITPEGV | 5.72 | 3.04 | 72.2 |
